Measured values published in the supplement of paper PMC9170038.

What was measured:
[1] = tested on: MS2 coat protein; test: apparent KD of MS2 coat protein, switch OFF state (with FMN for OFF switches, without FMN for ON switches); designed switch direction (-1 OFF switch, 1 ON switch): 1; higher = weaker reporter binding; conditions: FMN input: 0 or 200 uM; Eterna round: R93 (includes R88 designs)
How it was run: (§1)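 Illumina sequencing clusters were used for on-chip transcription of designed RNA switches. Titration with SNAP-549-labelled MS2 coat protein followed, in twofold steps from 0.7 or 1.5 nM to 3 µM in 100 mM Tris-HCl pH 7.5, 80 mM KCl, 4 mM MgCl2, without or with constant ligand. Apparent KD is each design's median of fits to normalised cluster binding curves.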

[2] = tested on: MS2 coat protein; test: apparent KD of MS2 coat protein, switch ON state; designed switch direction (-1 OFF switch, 1 ON switch): 1; higher = weaker reporter binding; conditions: FMN input: 0 or 200 uM; Eterna round: R93 (includes R88 designs)
How it was run: as §1

| Sequence | apparent KD of MS2 coat protein [1] | apparent KD of MS2 coat protein [2] |
| --- | --- | --- |
| AAAAAACAUGAGGAUCACCCAUGUCUUCGGACGUGAGGAUAUGUACAGACUUCGGUCUGUACAGAAGGCACAAAAA [SS1 - 1033] | 0.397 µM | 0.0381 µM |
| AAAAAACAUGAGGAUCACCCAUGUGAAAAUAUGGGAGGAUAUACAAAGACGAAAGUCAAAGUAGAAGGCCUAAAAA [Mat - Same State 1 - Eli mod - D86] | 0.132 µM | 0.0184 µM |
| AAAAAACAUGAGGAUCACCCAUGUGAGAACACGGGAGGAUAUACGAAGACGAAAGUCGAAGUAGAAGGCCUAAAAA [Garnet 82] | 0.0756 µM | 0.0213 µM |
| AAAAAAGAUCGAGAGGAUAUCCGAGUGGUAACAUGAGGAUCACCCAUGUGAAGAAAGGAACAUGAGGAGAAGGCUCGAUCAAAAA [viburnum 4] | 0.0187 µM | 0.00785 µM |
| AAAAAAUAAAAAAAGGAUAUAAUCGAUGGAACAUGAGGAUCACCCAUGUGACAUCGAAAAAUAAAAAAGAAGGAAAAAUAAAAAA [SS2: MS2 24] | 0.0112 µM | 0.0176 µM |
| AAAAACAUGGUGCAGGAUAUAUUAAUAGUCACAUGAGGAUCACCCAUGUUCAUAUAUAUGAACGAGUAGAAGGGCGAUGAAAAAA [Mat - Same state - Malcolm Mod - D110] | 0.541 µM | 0.181 µM |
| AAAACACAUGAGGAUCACCCAUGUAAAAACAUGAGAGGAUAUGCAUGGAAAACAUGCUAUGCAGAAGGCUCAUGUG [SS1 - 3] | 0.0346 µM | 0.0232 µM |
| AAAACACAUGAGGAUCACCCAUGUAAAAACAUGGGAGGAUAUGCAUGAAAAACAUGCUAUGCAGAAGGCUCAUGUG [SS1 - 2] | 0.0991 µM | 0.029 µM |
| AAAACACAUGAGGAUCACCCAUGUAGAAAUACUGGAGGAUAUGCUAAAACGAAAGACAAUGUAGAAGGCCGAAAAG [saturn 11] | 0.208 µM | 0.0716 µM |
| AAAAUACAUGAGGAUCACCCAUGUGAAAAUAUGGGAGGAUAUACCGAAAAAAAAAAAACGGUAGAAGGCCCAAAAA [SS! 1 MT 7] | 0.0435 µM | 0.0187 µM |
| AAAAUACAUGAGGAUCACCCAUGUGAGAAAAACGCAGGAUAUGCCCGAAAAAAAAGGCGGGCAGAAGGGUGAAAAA [SameState1-II] | 0.0904 µM | 0.0355 µM |
| AAACCACAUGAGGAUCACCCAUGUAAAAUAAUGGGAGGAUAUACUAGAAGAAACAAAAUAGUAGAAGGCUCAAAAA [75%, Ex sub1, 34] | 0.0973 µM | 0.0282 µM |
| AAACCACAUGAGGAUCACCCAUGUAGAAAUAUGGGAGGAUAUACAAAGACGAAAGUCAAAGUAGAAGGCCUAAAAG [77%, Mat - Mod of Eli, 5] | 0.0975 µM | 0.0314 µM |
| AAACUGGAGGACAAGGAUAUGUGCUCUACGACAUGAGGAUCACCCAUGUGAGACGUAGUAGUGAAACAGAAGGUGUCCUAUUGUU [Qulece] | 0.0274 µM | 0.0116 µM |
| AAAGAAAAACUAGAGGAUAUCUAGAUGAUAACAUGAGGAUCACCCAUGUGAAGAAAGGAAUAUAGGGAGAAGGCUAGAAGAAAAA [JL Nando mod 20] | 0.0286 µM | 0.0218 µM |
| AAAGACGUGGCGUAGGAUAUACUAAUAUUCACAUGAGGAUCACCCAUGUUCAUAUAUAUGAACGAGUAGAAGGACGACGAAAAAA [SameState2 Malc#1] | 0.12 µM | 0.0593 µM |
| AAAUAAAGGACUGAGGAUAUACCACAUGAAACAUGAGGAUCACCCAUGUUAAAAAACAAAGGGUGGUAGAAGGCAGUCCACAAAC [Same State 2.5f ( so lets mod hyphema)] | 0.0121 µM | 0.00926 µM |
| AAAUAAAUGACUGAGGAUAUAUCGAUGUGUACAUGAGGAUCACCCAUGUGUGAAUAAAAAGGGUGGUAGAAGGUAGUCAACAAAC [Mod 17 of Pariah 4 by Hyphema in Round 1] | 0.0667 µM | 0.0769 µM |
| AAAUAACAUGAGGAUCACCCAUGUCAAAUAAAUCGAGGAUAUGGGCCCGGGUUCCGGGAGCCAGAAGGCGAAAAGA [Teledimaqu] | 0.0416 µM | 0.0169 µM |
| AAAUAACAUGAGGAUCACCCAUGUUACGACUUUACAGGAUAUGUGGGUGAAAAUAGCAUGACAGAAGGGUACAGUA [SameState1 Malc#36] | 0.112 µM | 0.205 µM |

| Sequence | apparent KD of MS2 coat protein [1] | apparent KD of MS2 coat protein [2] |
| --- | --- | --- |
| AAAUAACAUGAGGAUCACCCAUGUUGCAACGAUACAGGAUAUGUGGGUGAAAAUAGCAUGACAGAAGGGUAAUGUA [SameState1 Malc#31] | 0.035 µM | 0.401 µM |
| AACAAUCUAUCUGAGGAUAUCAUAAAAAAAACAUGAGGAUCACCCAUGUGCAGGAAAACUGCAUAUGAGAAGGCAGAUAGAUUGA [SS2: 1102] | 0.0106 µM | 0.00873 µM |
| AACAAUCUAUCUGAGGAUAUCAUGAAAAAGACAUGAGGAUCACCCAUGUACCAGGAAACUGGUUAUGAGAAGGCAGAUAGAUUGA [SS2: 1116] | 0.0144 µM | 0.00932 µM |
| AACACGCGGGCGCAGGAUAUGUCGCUGGUGACAUGAGGAUCACCCAUGUAUACCAUUGCGGUUGAGCAGAAGGGUGAGAUGCGUG [Beisesanxe] | 0.0595 µM | 0.0159 µM |
| AACAUACAUGAGGAUCACCCAUGUUAGGUGGGACUAGGAUAUCAAUCGAAAGUGUUAUAAUGAGAAGGAGUAUAAA [JR_SS001_Sub015] | 0.209 µM | 0.127 µM |
| AAGAAACAUGAGGAUCACCCAUGUAAGAUAUACACAGGAUAUGCGAAAAGAAACAAAGAAGCAGAAGGGUGGAAAA [75%, Ex sub1, 10] | 0.0334 µM | 0.0149 µM |
| AAGAAACAUGAGGAUCACCCAUGUGAGAAUAACACAGGAUAUGCAAAAGAAAGAAAGAAAGCAGAAGGGUGAAGAA [Mat - Same State 1 - Tesla mod - 53] | 0.0591 µM | 0.0233 µM |
| AAGAAACAUGAGGAUCACCCAUGUGAUAAUAUGGGAGGAUAUACGAAGACGAAAGUCGAAGUAGAAGGCCUAUGAA [Garnet 42] | 0.0572 µM | 0.0402 µM |
| AAGAAAGUUUACGAGGAUAUGUUCCGCAGAACAUGAGGAUCACCCAUGUGAACAAGAAAGGCGACGCAGAAGGCGUGAGCAAAGA [Anvedi] | 0.105 µM | 0.0359 µM |
| AAGAAUGUUUACGAGGAUAUGUUCCGCAGAACAUGAGGAUCACCCAUGUGAACAAGAAAGGCGACGCAGAAGGCGUGAGCAAAGA [Laatreve] | 0.324 µM | 0.0457 µM |
| AAGACACAUGAGGAUCACCCAUGUCAAGAGAGACGAGGAUAUCUGAAAAAAAAAAAAAAAGGAGAAGGCGUGAAAA [Same State of Confusion] | 0.0693 µM | 0.0335 µM |
| AAGAGACAUGAGGAUCACCCAUGUAGGAUUAUGGGAGGAUAUACAAAGACGAGAGUCAGAGUAGAAGGCCUAGGAG [salish99-ss1-131(!)] | 0.0574 µM | 0.0232 µM |
| AAUAAAAAUAGUUAGGAUAUGAGAAUUAAGACAUGAGGAUCACCCAUGUAAUUAAAACAAGUAAAUCAGAAGGGACAGGGUGAAA [JR_SS002_Sub204] | 0.046 µM | 0.0994 µM |
| AAUAAACAUGAGGAUCACCCAUGUUUUAAUAGUUGAGGAUAUACGGGUGAAAAUAGCAUAGUAGAAGGCGAGUGUA [SameState1 Malc#13] | 0.0368 µM | 0.0312 µM |
| AAUAACAAAAGAAAGGAUAUGCGCACAGGAACAUGAGGAUCACCCAUGUGCCGCCAAGGCGGAUAGCAGAAGGUUCACACGCAUA [Default title] | 0.0201 µM | 0.0194 µM |
| AAUAAUUAUAACGAGGAUAUCCGUAAUAAGACAUGAGGAUCACCCAUGUAAUAAGGGUAAAUAAAGGAGAAGGCGUAGGGUGAAA [JR_SS002_Sub002] | 0.0611 µM | 0.0443 µM |
| AAUAAUUAUACGAAGGAUAUCGGUAAUUAGACAUGAGGAUCACCCAUGUAAUAUGGUUAAAUAAUCGAGAAGGUCGAGGGUGAAA [JR_SS002_Sub503] | 0.0423 µM | 0.0553 µM |
| AAUAGGAAGAGAGAGGAUAUCCAAAGGAAAACAUGAGGAUCACCCAUGUAAAAGGUAGGAAAUUGGGAGAAGGCUCAAGAGAGAG [salish99-ss2-073] | 0.0399 µM | 0.00955 µM |
| AAUAUACAUGAGGAUCACCCAUGUUUUAAUAGCUGAGGAUAUACGGGUGAAAAUAGCAUAGUAGAAGGCGGGUGUA [SameState1 Malc#9] | 0.08 µM | 0.0922 µM |
